B1: LINE1-mini (parent)
chain: GGCAGAGCUCAACACAGCGUGGCAAAGUGGCUGUGGCUAGACUGCC

Variants of: B1
Assay: self-cleavage, relative activity (ratio to wild type); higher = more cleavage; in vitro, sequencing; the parent is a self-cleaving ribozyme

Row | Variant | self-cleavage
1 | G5A C31U | 0.06
2 | G17U C46G | 0.12
3 | C13U G40C | 0.08
4 | C13U U28G | 0.08
5 | G7U G36A | 0.11
6 | G2U G27U | 0.06
7 | C8A A16C | 0.25
8 | C13A U34G | 0.03
9 | A6G C45G | 0.18
10 | C37A A39C | 0.12
11 | C13U A26C | 0.24
12 | A4U C13A | 0.12
13 | A16G U34G | 0.08
14 | G1A C8A | 0.88
15 | G21A G40C | 0.22
16 | G7A C31U | 0.08
17 | A24G G27U | 0.57
18 | A4C G35U | 0.18
19 | C3A C8G | 0.3
20 | G7C A11G | 0.03
21 | C15A U38G | 0.07
22 | A12U G19A | 0.42
23 | C10A U34C | 0.04
24 | G2A C18G | 0.46

Row | Variant | self-cleavage
25 | G7A A11C | 0.03
26 | G1A G30A | 0.85
27 | A24G C37G | 0.1
28 | A26U U34A | 0.07
29 | C15U G29C | 1.59
30 | A4G G33U | 0.16
31 | A6U U28G | 0.6
32 | U34G U38G | 0.03
33 | G7A G35C | 0.13
34 | G1C U32C | 0.03
35 | A16C U34C | 0.07
36 | A12G U43G | 0.1
37 | G22U A24U | 1.4
38 | G5C G36U | 0.04
39 | C15G U28G | 0.04
40 | C3A | 0.58
41 | C18A A24U | 0.67
42 | G36C C45A | 0.07
43 | A16G G22C | 0.1
44 | C13U A14G | 0.17
45 | A24U U34G | 0.24
46 | A6G A25U | 0.1
47 | G29A C42G | 0.04
48 | G21U A25G | 1.23

Row | Variant | self-cleavage
49 | C3U G22C | 0.48
50 | U9G U43A | 0.07
51 | C23A U32A | 0.11
52 | G21U C46G | 1.29
53 | U34G G36U | 0.11
54 | C23A A26G | 0.94
55 | C10U G30A | 0.54
56 | C3A G33A | 0.37
57 | C18A U20A | 0.29
58 | G17A U38G | 0.04
59 | A14G U34G | 0.3
60 | G33U U38A | 0.08
61 | G5A A39U | 0.1
62 | C3U U28A | 0.4
63 | A11C A26G | 0.05
64 | G35A G36U | 0.19
65 | C23G G33A | 0.32
66 | G7U A14G | 0.15
67 | G5C G19U | 0.14
68 | C13U G27U | 0.17
69 | C13G C45A | 0.25
70 | G2A A12C | 0.06
71 | U38C G40U | 0.1
72 | C23G G30A | 1.88

Row | Variant | self-cleavage
73 | A16U C23U | 0.23
74 | A6G C10A | 0.03
75 | C31A G35C | 0.04
76 | G7A G35U | 0.11
77 | A14U U32A | 0.05
78 | U43G G44A | 0.37
79 | C15A A25U | 0.07
80 | U28A C37G | 0.04
81 | U20G G30C | 0.3
82 | C15U A24G | 1.53
83 | G40C U43C | 0.07
84 | C15G C23U | 0.08
85 | G35C G36A | 0.05
86 | A39G C42U | 0.12
87 | C10A G21C | 0.04
88 | C8A G40A | 0.27
89 | G2C A25U | 0.08
90 | A4U G21C | 0.24
91 | A11C G17U | 0.03
92 | C8G A26U | 0.11
93 | C10A C15A | 0.04
94 | C37G | 0.05
95 | C3U A6C | 0.5
96 | G22U G35A | 0.15

Row | Variant | self-cleavage
97 | A25C C31G | 0.06
98 | C23A G29A | 0.91
99 | G19A A39U | 1.35
100 | U20G A41C | 0.02
101 | A6U C13A | 0.2
102 | A12G A26G | 0.03
103 | A11U C15A | 0.03
104 | G19C C46G | 0.23
105 | G5U C37A | 0.06
106 | G22U | 1.38
107 | G17A A41C | 0.04
108 | U20C A41C | 0.08
109 | C10G G30A | 0.21
110 | C8G U38G | 0.32
111 | G21A A25G | 1.4
112 | G27A C42G | 0.05
113 | G19U U43G | 0.02
114 | A41U C42G | 0.07
115 | U20A A24C | 0.28
116 | C45A C46U | 0.4
117 | U28G U38G | 0.02
118 | A14G A25G | 0.32
119 | A14G G21A | 0.71
120 | G19A A26U | 1.89

Row | Variant | self-cleavage
121 | G29C U43A | 0.03
122 | A11U G19U | 0.12
123 | G7A C13G | 0.26
124 | G35C G40C | 0.08
125 | A4U C31U | 0.1
126 | U9G G21U | 0.06
127 | G29U C45A | 0.63
128 | G40U A41U | 0.37
129 | A12G G19U | 0.02
130 | A4U G35C | 0.11
131 | G27C G29U | 0.51
132 | A16G G35A | 0.03
133 | G27U U34A | 0.23
134 | G33A U43G | 0.13
135 | A16C U38A | 0.13
136 | U34G A41C | 0.04
137 | C31U U43G | 0.02
138 | G22A A25G | 1.23
139 | U9C G36C | 0.03
140 | C3U U32C | 0.19
141 | G5C A26G | 0.05
142 | C18U G35U | 0.08
143 | A39C C46A | 0.13
144 | G22A G35A | 0.23

Row | Variant | self-cleavage
145 | U38A U43C | 0.13
146 | A39G A41U | 0.07
147 | G2C U38G | 0.03
148 | A39G C42A | 0.09
149 | G2U C15U | 0.05
150 | G33C C45A | 0.04
151 | C3G C45A | 0.45
152 | U20C G29C | 0.31
153 | U34C U38C | 0.07
154 | G2A G40A | 0.35
155 | G21A G30A | 1.73
156 | G7C C31G | 0.06
157 | A12U G29A | 0.31
158 | A12G A39U | 0.08
159 | A4G A26U | 0.39
160 | U20A G40C | 0.06
161 | G27U | 0.83
162 | A4U G27U | 0.14
163 | C15G C31A | 0.02
164 | G1C G22C | 0.19
165 | A25U U32A | 0.04
166 | C15U C23G | 0.81
167 | C10U A11U | 0.09

— the RNAGym collection of RNA variant scans (doi:10.7554/elife.90254)
